In general, stoichiometry N refers to the number of molecules, sites or subunits per partner or assembly.

Among the data in PMC5369232 are stoichiometry N values, retold here.

The target in test [1] is fluorescence recovery protein (FRP, Slr1964) of Synechocystis sp. PCC 6803, His6-tagged (Synechocystis sp. PCC 6803) (UniProt P74103). In words: native MS.
Test [2] has as its target T1, orange carotenoid protein (OCP) of Synechocystis sp. PCC 6803 (Synechocystis sp. PCC 6803), P74102.
T1 chain: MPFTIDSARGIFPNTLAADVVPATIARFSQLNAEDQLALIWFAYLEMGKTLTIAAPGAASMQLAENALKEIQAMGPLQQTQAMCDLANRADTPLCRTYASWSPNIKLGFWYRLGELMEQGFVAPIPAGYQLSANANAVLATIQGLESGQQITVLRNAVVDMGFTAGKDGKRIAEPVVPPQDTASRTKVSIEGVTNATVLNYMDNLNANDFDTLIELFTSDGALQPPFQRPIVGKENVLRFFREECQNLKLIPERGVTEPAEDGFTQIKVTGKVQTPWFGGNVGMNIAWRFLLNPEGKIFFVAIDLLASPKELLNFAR
Description: native MS. The conditions noted are these: remark: other sources report otherwise.

“fluorescence recovery protein (FRP, Slr1964) of Synechocystis sp. PCC 6803, His6-tagged (from UniProt P74103 2-109) (natural protein)” gave a stoichiometry N in test [1] of 2.

B1: orange carotenoid protein (OCP) of Synechocystis sp. PCC 6803, P74102 1-317 (natural protein)
chain: MPFTIDSARGIFPNTLAADVVPATIARFSQLNAEDQLALIWFAYLEMGKTLTIAAPGAASMQLAENALKEIQAMGPLQQTQAMCDLANRADTPLCRTYASWSPNIKLGFWYRLGELMEQGFVAPIPAGYQLSANANAVLATIQGLESGQQITVLRNAVVDMGFTAGKDGKRIAEPVVPPQDTASRTKVSIEGVTNATVLNYMDNLNANDFDTLIELFTSDGALQPPFQRPIVGKENVLRFFREECQNLKLIPERGVTEPAEDGFTQIKVTGKVQTPWFGGNVGMNIAWRFLLNPEGKIFFVAIDLLASPKELLNFAR
Consider B1, for which the stoichiometry N in test [2] was determined as 2.
